Publication PMC9464890, “Exosite binding modulates the specificity of the immunomodulatory enzyme ScpA, a C5a inactivating bacterial protease” (Computational and Structural Biotechnology Journal, 2022)
Numbering of substitutions follows the chain as printed.

Experiments:
[1] = biological target: T1, ScpA_(S512A,E864A) (Streptococcus pyogenes, UniProt P15926 31-1032, S512A | E864A); test: SPR; BIAcore X100, NTA sensor chip with about 20-25 RU of immobilised His-tagged C5a form (ligand), ScpA form flowed as ligate at 30 uL/min, 25 °C, 10 mM Hepes-KOH pH 7.4, 150 mM NaCl, 0.005% Tween 20, 50 uM EDTA; global fit, 1:1 Langmuir model with drifting baseline; triplicate; settings: both partners purified
T1 construct: Made by QuikChange II from pGEX ScpA(31-1032); also called E864A_(S512A); source: details in Supplemental Information SI1 and SI2
T1 sequence (looked up): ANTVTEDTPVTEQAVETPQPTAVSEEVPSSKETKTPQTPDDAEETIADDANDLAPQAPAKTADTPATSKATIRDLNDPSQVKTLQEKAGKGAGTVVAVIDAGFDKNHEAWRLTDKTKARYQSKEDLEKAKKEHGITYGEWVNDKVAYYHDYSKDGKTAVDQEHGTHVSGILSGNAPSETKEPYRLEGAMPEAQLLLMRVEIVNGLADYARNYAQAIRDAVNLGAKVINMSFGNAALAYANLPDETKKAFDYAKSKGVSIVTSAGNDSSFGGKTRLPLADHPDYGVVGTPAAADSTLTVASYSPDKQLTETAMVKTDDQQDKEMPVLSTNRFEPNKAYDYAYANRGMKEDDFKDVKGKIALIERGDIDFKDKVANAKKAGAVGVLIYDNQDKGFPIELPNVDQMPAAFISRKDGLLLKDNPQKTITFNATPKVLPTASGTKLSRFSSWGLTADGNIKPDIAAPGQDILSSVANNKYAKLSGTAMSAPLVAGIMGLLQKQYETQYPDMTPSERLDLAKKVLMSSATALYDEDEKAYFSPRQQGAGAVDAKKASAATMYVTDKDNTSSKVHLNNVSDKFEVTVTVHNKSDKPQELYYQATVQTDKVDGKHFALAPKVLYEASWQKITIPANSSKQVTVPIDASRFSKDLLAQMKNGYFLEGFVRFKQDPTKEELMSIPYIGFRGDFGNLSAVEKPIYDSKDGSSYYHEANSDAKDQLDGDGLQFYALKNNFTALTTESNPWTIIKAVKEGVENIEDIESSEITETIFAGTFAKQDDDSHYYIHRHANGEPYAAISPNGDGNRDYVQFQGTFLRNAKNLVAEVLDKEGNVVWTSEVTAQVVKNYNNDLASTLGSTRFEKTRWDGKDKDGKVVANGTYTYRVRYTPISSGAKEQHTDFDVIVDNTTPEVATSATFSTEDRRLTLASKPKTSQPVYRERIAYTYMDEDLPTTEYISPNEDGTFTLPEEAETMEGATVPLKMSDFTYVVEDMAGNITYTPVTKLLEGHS

[2] = biological target: T2, ScpA_(S512A,D783A) (Streptococcus pyogenes, UniProt P15926 31-1032, S512A | D783A); test: as above; settings: both partners purified
T2 construct: Made by QuikChange II from pGEX ScpA(31-1032); The active form D783A (S512 intact) was used for activity assays and for the crystal structure 7YZX; also called D783A_(S512A); source: details in Supplemental Information SI1 and SI2
T2 sequence (looked up): T1 sequence (looked up) with D753A, A834E

B1: Recombinant human C5a (rhC5a) (natural protein, UniProt P01031 678-751, looked up)
chain: TLQKKIEEIAAKYKHSVVKKCCYDGACVNNDETCEQRAARISLGPRCIKAFTECCVVASQLRANISHKDMQLGR
notes: human complement C5a anaphylatoxin, residues 1-74 (core 1-67 and tail 68-74); also called full length rhC5a; substrate; not shown: His6, N-terminal, kept
B1 showed a Kd [1] of 25 nM, a koff [1] of 0.0064 s⁻¹ and a kon [1] of 260000 M⁻¹ s⁻¹. It also gave a Kd [2] of 314 nM, a koff [2] of 0.0237 s⁻¹ and a kon [2] of 75400 M⁻¹ s⁻¹.
